Our source for the Binding affinity values is US20250011363A1, “OPTIMIZED SHORTENED PEPTIDE THAT BINDS TO ACETYLCHOLINE RECEPTOR, AND USE THEREOF” (SKINMED CO., LTD., priority 2021, published 2025).

This test concerns the target acetylcholine receptor (Homo sapiens, UniProt P02708). Nature of the test: SPR binding affinity (RU) of optimized 5mer/6mer/7mer peptides, Examples 6-7. Particulars: SPR, peptides tested at 10 μM; 6mer-1 Top sequence (top combinations). An outline of the steps: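 Using surface plasmon resonance, binding to the acetylcholine receptor was measured for each sequence at a single 10 μM concentration. Values are response units.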
On the technique in general: SPR reads the build-up and loss of mass on a sensor chip optically.

acetylcholine receptor, sequence (P02708 21-457): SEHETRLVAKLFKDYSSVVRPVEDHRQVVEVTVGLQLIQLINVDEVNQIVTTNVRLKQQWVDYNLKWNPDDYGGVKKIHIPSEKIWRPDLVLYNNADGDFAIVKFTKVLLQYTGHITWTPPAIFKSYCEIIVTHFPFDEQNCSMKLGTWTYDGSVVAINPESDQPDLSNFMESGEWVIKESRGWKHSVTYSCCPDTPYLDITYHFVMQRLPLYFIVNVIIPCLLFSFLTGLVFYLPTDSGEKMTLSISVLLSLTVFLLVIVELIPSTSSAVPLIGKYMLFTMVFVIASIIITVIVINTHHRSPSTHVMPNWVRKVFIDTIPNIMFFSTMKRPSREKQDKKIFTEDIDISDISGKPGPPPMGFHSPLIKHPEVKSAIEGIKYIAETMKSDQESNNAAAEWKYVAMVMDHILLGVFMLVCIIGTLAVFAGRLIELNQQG

As for 6mer-1-5 (KRQIRK), the Binding affinity was determined as 135 Ru.

For the substance 6mer-1-6 (RKSRCK), the Binding affinity came out at 153 Ru.

Regarding 6mer-1-7 (KRQYSK), the Binding affinity amounted to 126 Ru.

As to 6mer-1-8 (RKRRRK), the Binding affinity is on record as 125 Ru.

With 6mer-1-9 (RKSFCK), the Binding affinity is recorded as 154 Ru.

As for 6mer-1-10 (KRWRLK), the Binding affinity is 139 Ru.

As for 6mer-1-11 (KRQFTK), the Binding affinity is given as 139 Ru.

In the case of 6mer-1-12 (KKQICK), the Binding affinity was found to be 128 Ru.

6mer-1-13 (KRQIQR): the Binding affinity was 147 Ru.

For the substance 6mer-1-14 (RKRFLK), the Binding affinity was found to be 145 Ru.

For 6mer-1-15 (KRQICK), the Binding affinity came to 123 Ru.

As to 6mer-1-16 (KKQYCR), the Binding affinity was 136 Ru.

With 6mer-1-17 (KRVQCR), the Binding affinity is 135 Ru.

Turning to 6mer-1-18 (KKQFTR), the Binding affinity is 145 Ru.

Take 6mer-1-19 (KRSFYR): the Binding affinity worked out at 135 Ru.

As to 6mer-1-20 (KKSRYK), the Binding affinity was 147 Ru.

6mer-1-21 (RKWYLK): the Binding affinity came out at 137 Ru.

Consider 6mer-1-22 (RKRLCK), for which the Binding affinity was 126 Ru.

With 6mer-1-23 (KRSVSR), the Binding affinity came to 153 Ru.

6mer-1-24 (RKVIRK): the Binding affinity worked out at 142 Ru.

Turning to 6mer-1-25 (KKLIRR), the Binding affinity is 135 Ru.

Regarding 6mer-1-26 (KKRVLR), the Binding affinity was 123 Ru.

Regarding 6mer-1-27 (KRSFTK), the Binding affinity amounted to 142 Ru.

Consider 6mer-1-28 (RRWISK), for which the Binding affinity was 125 Ru.

Regarding 6mer-1-29 (KRLISR), the Binding affinity was determined as 124 Ru.

Consider 6mer-1-30 (RRQVRR), for which the Binding affinity amounted to 154 Ru.

Turning to 6mer-1-31 (KRLYCR), the Binding affinity is listed as 121 Ru.

6mer-1-32 (RKGQCR): the Binding affinity is listed as 121 Ru.

6mer-1-33 (KKSYCR): the Binding affinity is reported as 154 Ru.

For 6mer-1-34 (RKWLYK), the Binding affinity was 135 Ru.

Take 6mer-1-35 (RRGRQR): the Binding affinity is listed as 136 Ru.

On to 6mer-1-36 (RKWQQK), for which the Binding affinity came out at 124 Ru.

Consider 6mer-1-37 (KKWVLR), for which the Binding affinity was determined as 121 Ru.

As for 6mer-1-38 (RRQQTK), the Binding affinity is listed as 126 Ru.

Consider 6mer-1-39 (RKVYQK), for which the Binding affinity is 139 Ru.

Take 6mer-1-40 (KRSQYK): the Binding affinity was 121 Ru.

As for 6mer-1-41 (RKGITK), the Binding affinity is on record as 122 Ru.

6mer-1-42 (KKRIQR): the Binding affinity was found to be 139 Ru.

For the substance 6mer-1-44 (KRQYCK), the Binding affinity was found to be 148 Ru.

Turning to 6mer-1-45 (RKGLTK), the Binding affinity is recorded as 145 Ru.

Consider 6mer-1-46 (KRLYQR), for which the Binding affinity is 142 Ru.

Turning to 6mer-1-47 (KRRLLK), the Binding affinity is listed as 149 Ru.

For 6mer-1-48 (RRWVRR), the Binding affinity is listed as 124 Ru.

With 6mer-1-49 (RRWQTR), the Binding affinity worked out at 149 Ru.

For 6mer-1-50 (KKVRTR), the Binding affinity is 139 Ru.

For the substance 6mer-1-51 (RRVLYK), the Binding affinity came out at 127 Ru.

For the substance 6mer-1-52 (RRRFLR), the Binding affinity came to 131 Ru.

6mer-1-53 (KRVIQR): the Binding affinity stood at 123 Ru.

For the substance 6mer-1-54 (RRRVCK), the Binding affinity amounted to 144 Ru.

As to 6mer-1-55 (KRSIYR), the Binding affinity came out at 133 Ru.

On to 6mer-1-56 (RRGIQR), for which the Binding affinity turned out to be 137 Ru.

Regarding 6mer-1-57 (RKQYYK), the Binding affinity is recorded as 139 Ru.

For the substance 6mer-1-58 (RKSVTR), the Binding affinity is on record as 126 Ru.

For 6mer-1-59 (KRLQCK), the Binding affinity was determined as 145 Ru.

In the case of 6mer-1-60 (RKSIQK), the Binding affinity was determined as 139 Ru.

Turning to 6mer-1-61 (KRSYCK), the Binding affinity is recorded as 121 Ru.

Regarding 6mer-1-62 (RRWFTK), the Binding affinity is reported as 133 Ru.

In the case of 6mer-1-63 (KKWVSR), the Binding affinity is on record as 148 Ru.

For 6mer-1-64 (RKQFTK), the Binding affinity turned out to be 154 Ru.

As for 6mer-1-65 (KKSRRR), the Binding affinity is recorded as 121 Ru.

For the substance 6mer-1-66 (KKSISR), the Binding affinity is 147 Ru.

Take 6mer-1-67 (RRSYTR): the Binding affinity came to 135 Ru.

With 6mer-1-68 (RKLQLK), the Binding affinity worked out at 153 Ru.

For 6mer-1-69 (RKVRRR), the Binding affinity was 142 Ru.

As for 6mer-1-70 (KKLLYR), the Binding affinity was determined as 139 Ru.

Take 6mer-1-71 (KRWFYK): the Binding affinity worked out at 121 Ru.

Regarding 6mer-1-72 (RKVQLK), the Binding affinity is listed as 139 Ru.

As for 6mer-1-73 (KKQQQR), the Binding affinity worked out at 142 Ru.

Regarding 6mer-1-74 (KKVRLR), the Binding affinity was 142 Ru.

For the substance 6mer-1-75 (RRQYQK), the Binding affinity was found to be 139 Ru.

Turning to 6mer-1-76 (RRLQLK), the Binding affinity is 126 Ru.

Consider 6mer-1-77 (KKQLRR), for which the Binding affinity is 149 Ru.

Take 6mer-1-78 (KKRVSK): the Binding affinity came out at 145 Ru.

For the substance 6mer-1-79 (KRLFCK), the Binding affinity is recorded as 137 Ru.

Consider 6mer-1-80 (KRVQQR), for which the Binding affinity is 133 Ru.

For 6mer-1-81 (RRWQLR), the Binding affinity was found to be 148 Ru.

In the case of 6mer-1-82 (KKVLYR), the Binding affinity came out at 123 Ru.

On to 6mer-1-83 (RRSFLR), for which the Binding affinity is listed as 146 Ru.

With 6mer-1-84 (RRGQTK), the Binding affinity turned out to be 142 Ru.

6mer-1-85 (RKRQCK): the Binding affinity came to 121 Ru.

For 6mer-1-86 (KKWRQK), the Binding affinity is given as 142 Ru.

For the substance 6mer-1-87 (KKQVYK), the Binding affinity came to 139 Ru.

With 6mer-1-88 (KRWICK), the Binding affinity is given as 121 Ru.

Take 6mer-1-89 (RKQRCK): the Binding affinity was found to be 142 Ru.

With 6mer-1-90 (KKGISK), the Binding affinity is reported as 125 Ru.

As to 6mer-1-91 (RKQQCK), the Binding affinity was 131 Ru.

For the substance 6mer-1-92 (RRWRLK), the Binding affinity is given as 153 Ru.

For 6mer-1-93 (KRWIRR), the Binding affinity turned out to be 136 Ru.

As to 6mer-1-94 (RKVQQK), the Binding affinity was determined as 142 Ru.

Turning to 6mer-1-95 (KKWQTK), the Binding affinity was 142 Ru.

Take 6mer-1-96 (KRGVRK): the Binding affinity is 125 Ru.

In the case of 6mer-1-97 (KKVYLR), the Binding affinity came to 139 Ru.

On to 6mer-1-98 (KRLQCR), for which the Binding affinity came to 154 Ru.

6mer-1-99 (RKVVYR): the Binding affinity is recorded as 136 Ru.

Consider 6mer-1-100 (RKWISK), for which the Binding affinity turned out to be 146 Ru.

On to 6mer-1-101 (KRWLYR), for which the Binding affinity amounted to 142 Ru.

Turning to 6mer-1-102 (RRRYRR), the Binding affinity stood at 127 Ru.

Take 6mer-1-103 (RKRICK): the Binding affinity is 122 Ru.

On to 6mer-1-104 (KRGFSK), for which the Binding affinity amounted to 121 Ru.

Consider 6mer-1-105 (KKSISK), for which the Binding affinity came out at 141 Ru.

For 6mer-1-106 (KRGQLK), the Binding affinity was determined as 149 Ru.

Regarding 6mer-1-107 (KKQRSR), the Binding affinity is on record as 131 Ru.

Turning to 6mer-1-108 (RRLLLR), the Binding affinity is given as 139 Ru.

For 6mer-1-109 (KKRYLR), the Binding affinity amounted to 148 Ru.

Consider 6mer-1-110 (KRQLLK), for which the Binding affinity came to 121 Ru.

Regarding 6mer-1-111 (RKVICR), the Binding affinity was 144 Ru.

As for 6mer-1-112 (KKWVCR), the Binding affinity came out at 148 Ru.

For 6mer-1-113 (KRGVQK), the Binding affinity was 148 Ru.

On to 6mer-1-114 (RRQITK), for which the Binding affinity worked out at 153 Ru.

With 6mer-1-115 (RRSLSR), the Binding affinity is given as 133 Ru.

For the substance 6mer-1-116 (RKVRCK), the Binding affinity worked out at 139 Ru.

As to 6mer-1-117 (KRLFTR), the Binding affinity worked out at 142 Ru.

As to 6mer-1-118 (RKLQLR), the Binding affinity was found to be 127 Ru.

For 6mer-1-119 (KRLQTR), the Binding affinity is listed as 133 Ru.

As to 6mer-1-120 (RRRYSR), the Binding affinity was found to be 124 Ru.

Consider 6mer-1-121 (KRRYTK), for which the Binding affinity worked out at 148 Ru.

As to 6mer-1-122 (KKLIRK), the Binding affinity was determined as 139 Ru.

For 6mer-1-123 (RRGVQK), the Binding affinity is 148 Ru.

For the substance 6mer-1-124 (KRVQQK), the Binding affinity is on record as 137 Ru.

As to 6mer-1-125 (KRRLCR), the Binding affinity was determined as 135 Ru.

Turning to 6mer-1-126 (KKWIQR), the Binding affinity is listed as 148 Ru.

With 6mer-1-127 (KRVIYR), the Binding affinity is reported as 147 Ru.

As to 6mer-1-128 (RKQFYR), the Binding affinity was found to be 126 Ru.

For the substance 6mer-1-129 (RRRQSK), the Binding affinity amounted to 121 Ru.

In the case of 6mer-1-130 (RKQVLR), the Binding affinity was determined as 142 Ru.

In the case of 6mer-1-131 (KRGIQR), the Binding affinity was 142 Ru.

6mer-1-132 (RRQVYR): the Binding affinity was 153 Ru.

With 6mer-1-133 (RKRFLR), the Binding affinity amounted to 154 Ru.

With 6mer-1-134 (KKSIYR), the Binding affinity is on record as 128 Ru.

Consider 6mer-1-135 (KRQVSR), for which the Binding affinity is given as 123 Ru.

As for 6mer-1-136 (RRWLYK), the Binding affinity is reported as 148 Ru.

For the substance 6mer-1-137 (RRLFRR), the Binding affinity is reported as 121 Ru.

As for 6mer-1-138 (RKVVTR), the Binding affinity came to 124 Ru.

Consider 6mer-1-139 (KRRFLR), for which the Binding affinity was 122 Ru.
